Assay results taken from patent US20240335553A1.

Tests used:
[1] = molecular target: cation-independent mannose-6-phosphate receptor (CI-MPR), recombinant human IGF-II R (human) (UniProt P11717); experiment: SPR, CI-MPR immobilized, antibody as analyte, 2-fold dilutions from 500 nM
[2] = molecular target: cation-independent mannose-6-phosphate receptor (CI-MPR), recombinant human IGF-II R (human) (UniProt P11717); experiment: SPR (Biacore T200), CI-MPR immobilized on a CM5 chip, antibody as analyte in 2-fold dilutions from 500 nM to 0.98 nM
[3] = molecular target: cation-independent mannose-6-phosphate receptor (CI-MPR), recombinant human IGF-II R (human) (UniProt P11717); experiment: SPR, CI-MPR immobilized, 1:1 Langmuir global fit
[4] = molecular target: cation-independent mannose-6-phosphate receptor (CI-MPR), recombinant human IGF-II R (human) (UniProt P11717); experiment: SPR, CI-MPR immobilized
[5] = molecular target: cation-independent mannose-6-phosphate receptor (CI-MPR), recombinant human IGF-II R (human) (UniProt P11717); experiment: SPR, CI-MPR immobilized, steady-state fitting
[6] = molecular target: epidermal growth factor receptor (EGFR) (human) (UniProt P00533); experiment: cell-based or functional assay

| Substance | Kd [1] | Kd [2] | Kd [3] | fold affinity against glycoform (3) [4] | Kd [5] | degradation of total EGFR in HepG2 cells (Western blot, 48 h, 10 nM antibody) [6] | fold affinity against glycoform (9) [4] |
| --- | --- | --- | --- | --- | --- | --- | --- |
| trastuzumab M6P-glycoform 6 (trastuzumab carrying the M6P-Man3GlcNAc2 glycan) (antibody) |  |  |  |  | 0.7 µM |  |  |
| cetuximab M6P-glycoform 9 (cetuximab carrying the M6P tetrasaccharide glycan at the Fc domain) (antibody) | 0.0724 µM | 0.0703 µM | 0.0703 µM |  |  | 57% |  |
| cetuximab M6P-glycoform 10 (cetuximab carrying the bis-phosphorylated heptasaccharide N-glycan) (antibody) |  | 0.0296 µM | 0.0296 µM |  |  |  | 2 fold |

The remaining substances from weak to strong by Kd [2], led by results:

| Kd [1] | Kd [2] | Kd [3] | fold affinity against glycoform (3) [4] | Kd [5] | degradation of total EGFR in HepG2 cells (Western blot, 48 h, 10 nM antibody) [6] | fold affinity against glycoform (9) [4] | Substance |
| --- | --- | --- | --- | --- | --- | --- | --- |
| 0.0302 µM | 0.0286 µM | 0.0286 µM |  |  |  |  | trastuzumab M6P-glycoform 3 (trastuzumab carrying the M6P tetrasaccharide glycan at the Fc domain) (antibody) |
|  | 0.0054 µM | 0.0054 µM | 4 fold |  |  |  | trastuzumab M6P-glycoform 7 (trastuzumab carrying the bis-phosphorylated heptasaccharide moiety) (antibody) |
